Experimental data taken from paper PMC7537338, “CD47/SIRPα blocking peptide identification and synergistic effect with irradiation for cancer immunotherapy” (Journal for Immunotherapy of Cancer, 2020).

Assays:
[1] = molecular target: human CD47-IgV-Domain protein (human), Q08722; experiment: MST; human or mouse CD47-IgV-Domain protein labeled with NT-647, about 50 to 200 nM; unlabeled peptides or ligand protein diluted serially; 50 mM Tris, 150 mM NaCl, 10 mM MgCl2, 0.05% Tween-20, 0.5% DMSO, pH 7.5; 30 min at room temperature; 25°C
Chain of human CD47-IgV-Domain protein (human), Q08722 (Q08722 19-141): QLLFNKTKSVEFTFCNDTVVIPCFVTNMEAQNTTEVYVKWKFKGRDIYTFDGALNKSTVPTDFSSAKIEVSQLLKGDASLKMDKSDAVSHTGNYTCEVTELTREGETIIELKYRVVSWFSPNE

[2] = molecular target: T1, mouse CD47-IgV-Domain protein (mouse), Q61735; experiment: as above
T1 chain: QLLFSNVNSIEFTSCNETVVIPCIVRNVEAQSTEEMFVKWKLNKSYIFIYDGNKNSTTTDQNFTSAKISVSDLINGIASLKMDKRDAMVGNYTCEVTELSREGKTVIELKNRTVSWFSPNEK

[3] = molecular target: human CD47-IgV-Domain-hIg fusion protein (human), Q08722; experiment: flow cytometry on cells; competition: CD47-IgV-Domain-hIg (20 nM) incubated with titrating concentrations of peptide in PBS pH 7.4 for 1 hour at 4°C, then on SIRPα-overexpressing CHO cells 30 min at 4°C; PE-conjugated goat anti-human IgG; IC50 from sigmoidal dose response curves
Chain of human CD47-IgV-Domain-hIg fusion protein (human), Q08722 (Q08722 19-141): as the sequence (Q08722 19-141) above

[4] = molecular target: T2, mouse CD47-IgV-Domain-hIg fusion protein (mouse), Q61735; experiment: as above
T2 chain: T1 chain

AWSATWSNYWRH (modifications not checked) [pep-20]
Kd [1]: 2.91 µM
Kd [2]: 3.63 µM
IC50 [3]: 24.6 µM
IC50 [4]: 12 µM
